Test results published in patent US8445240B2, “Termite enzymes and uses thereof for in vitro conversion of lignin-containing materials to fermentable products” (University of Florida Research Foundation, Inc., priority 2009, dated 2013).

B1: Cell-1: host-derived β-1,4-endoglucanase (GHF9) from Reticulitermes flavipes, SEQ ID NO.: 2; recombinant, BEVS or E. coli expressed (protein)
chain: MKVFVCLLSALALCQAAYDYKTVLSNSLLFYEAQRSGKLPSDQKVTWRKDSALNDKGQKGEDLTGGYYDAGDFVKFGFPMAYTVTVLAWGVIDYESAYSAAGALDSGRKALKYGTDYFLKAHTAANEFYGQVGQGDVDHAYWGRPEDMTMSRPAYKIDTSKPGSDLAAETAAALAATAIAYKSADATYSNNLITHAKQLFDFANNYRGKYSDSITDAKNFYASGDYKDELVWAAAWLYRATNDNTYLTKAESLYNEFGLGNWNGAFNWDNKISGVQVLLAKLTSKQAYKDKVQGYVDYLISSQKKTPKGLVYIDQWGTLRHAANSALIALQAADLGINAATYRAYAKKQIDYALGDGGRSYVVGFGTNPPVRPHHRSSSCPDAPAVCDWNTYNSAGPNAHVLTGALVGGPDSNDSYTDARSDYISNEVATDYNAGFQSAVAGLLKAGV
modifications: Reticulitermes flavipes; amino acid sequence Beta-1,4-endoglucanase (Cell-1)
notes: recombinant, BEVS or E. coli expressed
B2: RfLacA: recombinant R. flavipes gut laccase isoform 1, clone Lac6, SEQ ID NO.: 8 (protein)
chain: LIRLTIGQAVVSTQSTREAVVSTQSTRDTALSVYRSDAYIMLPCVLLACAIGVASATSVLLNSYLQPNDDIDRNTYLLNAKSNNCARICNGTEAPKICYYQWTIENYVTLSEACDNCPLNVTACYNAQCITADGYERSILSVNRKLPGPSIEVCLRDRVIVDITNNMAGRTTSIHWHGVFQKGSQYMDGVPMVTQCTIHEGDTFRYDFIANNEGTHFWHSHDGLQKLDGVTGNLVVRVPKNFDPNGQLYDFDLPEHKIFISDWLHLSADDHFPGLRATNPGQDANSFLINGRGRTLIGTQSTNTPYAQINVQWGRRYRLRIVGSLCTVCPTQLTIDGHKITVIATDGNSVAPARVDSLIIYSGERYDVVLEATNTEGSYWIHLKGLATCVGSRVYQLGVLQYENTTTNKLHALTPDPGYDGFPQPASYRVLNPENASCSIGSTGLCVTQLANSDPVPRDILTQLPDINYLLQFGFETFDSRSFFKAYDRYFVSPFLELLSSTVNNISFVSPPSPLLSQRGDVPDDILCPTGADGLPQCPGGNSYCTCVHVIKIKLGALVQIILSDQSPKSDLNHPFHIHGHAFYVLGMGQYAAGQTAQDLLNSLKSNVSSVSPAPVLKDTVAVPSGGYAIIKFRPKNPGYWFLHCHFLYHVATGMSVVLQVGETSDYPPTPDGFPKCGSFTPPVNTN
modifications: Reticulitermes flavipes; amino acid sequence Laccase Lacc-6

Experiments:
[1] = Glucose release from pine sawdust by recombinant enzymes and mixtures; type: biochemical; conditions: 2% w/v, 18 hrs, 37° C., pH 7
Description: All reactions were performed in 0.1 M sodium acetate buffer containing 10 mM calcium chloride (pH 7). The two feedstock substrates were pine sawdust (=lignin+cellulose+hemicellulose) and beechwood xylan (=lignin+hemicellulose). Feedstocks were tested at 2% w/v (10 mg in 0.5 mL buffer). Reactions were run for 18 hrs at 37° C. with shaking at 220 rpm in vented 1.5 mL plastic tubes.
Protein volumes used per assay were 10 μL of each of the Cell-1, β-glucosidase, and Laccase 6 recombinant protein preparations. These loading volumes provided 8.5, 7.9 and 2.0 μg of each protein, respectively, per reaction. The storage buffer for Cell-1 and β-glucosidase was 0.1 M sodium acetate, 0.15 M sodium chloride, and 0.5 M calcium chloride (pH 5.8). The storage buffer for Laccase 6 was 0.1M boric acid, phosphoric acid, and acetic acid (pH 7.0).
Reactions were stopped after 18 hours by the addition of 10 μL of 0.2 Methylene-diamine tetra-acetic acid and centrifuged for 5 min at 16,000×g. Glucose detection was performed in triplicate on 125 μL aliquots of each reaction supernatant. The entire experiment was replicated three times. Glucose release was measured using the Autokit Glucose reagent kit (Wako Chemical, Richmond, Va.) at a volume of 125 μL per determination. Glucose was quantified based on absorbance at 505 nm relative to glucose standard curves. Standard curves were prepared in eight serial dilutions downward from 0.6 mM in sodium acetate-calcium chloride reaction buffer.

[2] = Colorimetric β-1,4-endoglucanase assay of Cell-1 on CMC; type: biochemical; conditions: BEVS-expressed; 100 mM sodium acetate pH 6.5, 25° C.
Description: Colorimetric β-1,4-endoglucanase enzyme assays: Six total substrates were tested: CMC (carboxymethyl cellulose), pNPG (p-nitrophenyl-beta-D-glucopyranoside), pNPC2 (p-nitrophenyl-beta-D-cellobioside), pNPC3 (p-nitrophenyl-beta-D-cellotrioside), pNPC4 (p-nitrophenyl-beta-D-cellotetraoside), and pNPC5 (p-nitrophenyl-beta-D-cellopentaoside). All assay methods were carried out under optimal conditions (Zhou et al., (2007) Gene 395:29-39).
(FIG. 7). For subsequent characterizations, the 1.5% CMC concentration was used. pH studies were performed by dissolving 1.5% CMC in two different buffer systems: 100 mM sodium acetate (pH 3-6.5) and 100 mM sodium phosphate (pH 7-10.5), as shown in FIG. 8. […] Temperature-cofactor studies were performed using 1.5% CMC dissolved in 100 mM sodium phosphate (pH 7) alone, plus 4 mM EDTA (final concentration), or plus 10 mM calcium chloride (final concentration). Pre-incubations took place for 0-5 days at 25° C. or 0-60 min at 60° C. or 70° C.; reactions were terminated by the combination of adding stop solution and boiling for 10 min, and then assays were read at 25° C. (FIG. 9).

[3] = Preliminary stability test of purified recombinant Cell-1; type: physicochemical; conditions: incubation at 65° C. or 26° C. for 65 hr
Source text: An approximately 48 kDa band was present in baculovirus-infected larvae, but absent from uninfected and blank virus controls. Following purification and concentration the recombinant Cell-1 protein migrated as a single band at approximately 48 kDa. […] In addition to endoglucanase activity (the expected activity for Cell-1), exoglucanase and β-glucosidase activities were also investigated using the substrates pNPC and pNPG. All three activities were present in both uninfected and blank-virus-infected T. ni larvae, with exoglucanase and β-glucosidase activity being the strongest. However, only endoglucanase activity remained for purified Cell-1. In agreement with SDS-PAGE results, it was enriched at least 10-fold relative to clarified supernatants of infected larvae.

[4] = E. coli-expressed Cell-1 against exoglucanase and β-glucosidase substrates; type: biochemical; conditions: Ni-purified active fractions
Description: Soluble fractions obtained after 19° C. IPTG induction were subjected to Ni-chromatography for purification. The His-tagged Cell-1 was retained on Ni columns and eluted in a single peak of CMC activity after the introduction of imidazole elution buffer.

[5] = Lignin alkali metabolism by RfLacA, HPLC analysis; type: biochemical; conditions: 1% w/v, pH 7.5, 16 hr, 32° C.
[6] = Characterisation of recombinant RfLacA and RfLacB isoforms; type: biochemical

Molecule | glucose release from pine sawdust [1] [pmol/min] | Km against CMC [2] [% w/v] | Vmax against CMC [2] [pmol/min/mg] | protein stability in purified form [3] | activity against pNPC and pNPG [4] | glucose release from pine sawdust (in words) [1] | action on lignin alkali [5] | oxidation of ABTS and syringaldazine [6]
B1 | 3.70 | 1.496 | 1.469 | no protein degradation | no activity | – | – | –
B2 | – | – | – | – | – | No glucose release was detectable | evidence of RfLacA action on lignin | unable to oxidize
